This note sets out measurements from publication PMC11172311, “Structural and Interactional Analysis of the Flavonoid Pathway Proteins: Chalcone Synthase, Chalcone Isomerase and Chalcone Isomerase-like Protein” (International Journal of Molecular Sciences, 2024).

The target in experiment [1] is Panicum virgatum chalcone synthase (PvCHS) (Panicum virgatum). Put plainly: ITC; PvCHS in the well, PvCHIL in the syringe; 22 injections of 2 µL; PBS; with naringenin chalcone at 5x molar excess. On the technique in general: In ITC the heat of successive injections is recorded.
Experiment [2] has the same target. Put plainly: ITC; PvCHS in the well, PvCHIL in the syringe; 22 injections of 2 µL; PBS; with naringenin at 5x molar excess.
For experiment [3] the target is unchanged. Put plainly: ITC; PvCHS in the well, PvCHIL in the syringe; 22 injections of 2 µL; PBS; no small molecule added.
Experiment [4] shares this target. The description is as above. The source holds these as a separate data set.
Experiment [5] shares this target.
For experiment [6] the target is unchanged. The source holds these as a separate data set.
Experiment [7] concerns the target Panicum virgatum chalcone isomerase-like protein (PvCHIL) (Panicum virgatum). Put plainly: FRET or BRET; PvCHIL labelled with ATTO 488 (donor) held at 1 µM, PvCHS labelled with ATTO 550 (acceptor) gradually increased; PBS pH 7.4; spectra in triplicate. Background: BRET reads energy transfer from a luciferase to a nearby fluorophore.
The target in experiment [8] is Panicum virgatum chalcone isomerase (PvCHI) (Panicum virgatum). As to the kind of experiment: FRET or BRET; PvCHI labelled with ATTO 488 (donor) held at 1 µM, PvCHS labelled with ATTO 647N (acceptor) gradually increased (0.5 to 10 µM); PBS pH 7.4; spectra in triplicate.
The target in experiment [9] is Panicum virgatum chalcone synthase (PvCHS) (Panicum virgatum). As to the kind of experiment: crystal structure; PvCHS co-crystallised with naringenin and CoA, space group P1, four molecules in the unit cell; hanging drop, 277 K; data at 100 K.

“Panicum virgatum chalcone isomerase-like protein (PvCHIL) (natural protein)”: the values for the dissociation constant Kd in experiment [1], in experiment [2] and in experiment [4] were 170 µM, 7.46 µM and 76.3 µM, respectively. In addition, the dH in experiment [1] came out at 36.4 kcal/mol; in [2] it was 5.34 kcal/mol; in experiment [3], 31.9 kcal/mol; in experiment [4] it was 31.8 kcal/mol. Besides, in [5], the Vmax of PvCHS for p-coumaroyl-CoA in the presence of PvCHIL (5:1 molar ratio) against PvCHS alone was 7.7 fold.
Consider “Panicum virgatum chalcone isomerase (PvCHI) (enzyme)”, for which, in experiment [6], the Vmax of PvCHS for p-coumaroyl-CoA (naringenin plus naringenin chalcone formed) in the presence of PvCHI against PvCHS alone was found to be 24 fold; the Vmax of PvCHS for p-coumaroyl-CoA in the three-protein system (PvCHS, PvCHI and PvCHIL) against PvCHS alone; PvCHIL does not compete with PvCHI worked out at 437 fold.
As to “Panicum virgatum chalcone synthase (PvCHS) (enzyme)”, the values for the Kd in experiment [7] and in experiment [8] were 26.5 µM and 0.637 µM, respectively. In experiment [9], the stoichiometry N (in general, the number of molecules, sites or subunits per partner or assembly) was determined as 2.
